Data on six molecules can be found in paper PMC3413153.

In one data set the target is T1, KSRP KH1-4 WT (human, UniProt Q92945).
T1 sequence: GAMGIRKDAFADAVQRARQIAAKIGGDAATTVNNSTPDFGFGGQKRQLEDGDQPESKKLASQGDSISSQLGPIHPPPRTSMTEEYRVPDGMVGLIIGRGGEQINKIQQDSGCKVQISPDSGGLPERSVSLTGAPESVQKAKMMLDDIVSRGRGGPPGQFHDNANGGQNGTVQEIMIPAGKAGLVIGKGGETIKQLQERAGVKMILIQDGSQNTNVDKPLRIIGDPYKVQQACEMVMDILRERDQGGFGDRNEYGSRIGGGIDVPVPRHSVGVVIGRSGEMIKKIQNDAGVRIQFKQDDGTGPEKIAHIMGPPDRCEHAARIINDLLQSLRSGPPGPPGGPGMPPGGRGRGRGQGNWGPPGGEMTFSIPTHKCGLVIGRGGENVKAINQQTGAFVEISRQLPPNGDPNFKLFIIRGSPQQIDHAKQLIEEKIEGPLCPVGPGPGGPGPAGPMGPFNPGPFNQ
Description: BLI. A general note: Biolayer interferometry detects binding as a change in optical thickness at a sensor tip.

Another data set has as its target T2, KSRP KH1-4, KH2 mutant (human, UniProt Q92945 68-525, K251D;G252D).
T2 sequence: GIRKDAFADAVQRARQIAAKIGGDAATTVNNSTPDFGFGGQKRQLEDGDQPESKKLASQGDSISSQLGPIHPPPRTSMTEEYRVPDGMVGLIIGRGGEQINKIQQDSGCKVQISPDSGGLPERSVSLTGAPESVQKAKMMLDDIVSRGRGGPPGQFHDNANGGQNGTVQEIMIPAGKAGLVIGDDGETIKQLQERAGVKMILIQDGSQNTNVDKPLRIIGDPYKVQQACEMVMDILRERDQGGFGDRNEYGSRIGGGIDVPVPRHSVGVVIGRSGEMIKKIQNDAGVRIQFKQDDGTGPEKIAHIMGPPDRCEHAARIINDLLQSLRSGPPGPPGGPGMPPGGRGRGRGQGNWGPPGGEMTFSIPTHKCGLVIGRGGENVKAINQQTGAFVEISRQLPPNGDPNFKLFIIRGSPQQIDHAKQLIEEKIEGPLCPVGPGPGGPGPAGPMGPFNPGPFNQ
Description: BLI.

A further data set has as its target T3, KSRP KH1-4, KH1 mutant (human, UniProt Q92945 68-525, R162D;G163D).
T3 sequence: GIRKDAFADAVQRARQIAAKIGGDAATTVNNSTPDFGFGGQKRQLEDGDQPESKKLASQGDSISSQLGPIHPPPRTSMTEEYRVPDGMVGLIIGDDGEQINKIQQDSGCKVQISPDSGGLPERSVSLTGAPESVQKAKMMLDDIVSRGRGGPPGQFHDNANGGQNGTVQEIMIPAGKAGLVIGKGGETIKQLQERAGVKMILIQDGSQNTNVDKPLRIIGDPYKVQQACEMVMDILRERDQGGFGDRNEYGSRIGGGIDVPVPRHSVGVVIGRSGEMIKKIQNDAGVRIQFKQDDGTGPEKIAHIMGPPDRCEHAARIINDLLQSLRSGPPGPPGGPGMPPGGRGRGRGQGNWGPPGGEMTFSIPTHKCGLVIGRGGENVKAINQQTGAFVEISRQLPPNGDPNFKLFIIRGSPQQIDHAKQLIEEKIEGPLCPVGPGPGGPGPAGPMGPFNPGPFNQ
Nature of the data set: BLI.

The next data set deals with T4, KSRP KH1-4, KH3 mutant (human, UniProt Q92945 68-525, R340D;S341D).
T4 sequence: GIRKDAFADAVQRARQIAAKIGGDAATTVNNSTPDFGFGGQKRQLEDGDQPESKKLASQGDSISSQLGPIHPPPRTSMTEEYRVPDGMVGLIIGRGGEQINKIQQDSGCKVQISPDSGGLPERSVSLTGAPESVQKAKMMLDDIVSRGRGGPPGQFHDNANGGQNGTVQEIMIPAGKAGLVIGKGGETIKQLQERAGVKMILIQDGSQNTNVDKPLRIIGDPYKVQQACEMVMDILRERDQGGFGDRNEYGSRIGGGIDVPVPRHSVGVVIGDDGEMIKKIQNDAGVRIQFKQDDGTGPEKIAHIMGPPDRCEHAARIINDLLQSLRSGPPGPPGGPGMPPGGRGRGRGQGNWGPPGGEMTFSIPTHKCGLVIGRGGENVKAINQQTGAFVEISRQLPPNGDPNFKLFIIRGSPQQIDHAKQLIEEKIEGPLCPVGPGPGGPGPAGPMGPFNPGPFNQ
Description: BLI.

The next data set has as its target T5, KSRP KH1-4, KH4 mutant (human, UniProt Q92945 68-525, R442D;G443D).
T5 sequence: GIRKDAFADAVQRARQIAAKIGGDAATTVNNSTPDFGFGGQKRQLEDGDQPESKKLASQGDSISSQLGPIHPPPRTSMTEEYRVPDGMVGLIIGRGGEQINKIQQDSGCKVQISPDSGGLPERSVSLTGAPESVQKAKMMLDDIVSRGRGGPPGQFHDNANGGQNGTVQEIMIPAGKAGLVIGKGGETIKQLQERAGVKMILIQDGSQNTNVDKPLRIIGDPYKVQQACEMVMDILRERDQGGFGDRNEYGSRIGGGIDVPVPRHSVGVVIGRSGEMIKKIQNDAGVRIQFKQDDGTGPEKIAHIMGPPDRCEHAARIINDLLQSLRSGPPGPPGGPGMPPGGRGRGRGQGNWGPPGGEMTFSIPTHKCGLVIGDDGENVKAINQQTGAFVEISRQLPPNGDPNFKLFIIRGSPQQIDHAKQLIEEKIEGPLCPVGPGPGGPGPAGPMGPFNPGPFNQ
Nature of the data set: BLI.

The next data set deals with ZBP1 KH34 (Y396F) (UniProt Q9NZI8, Y396F). Description: NMR.
The target in a further data set is T6, KSRP KH2 (human, UniProt Q92945).
T6 sequence: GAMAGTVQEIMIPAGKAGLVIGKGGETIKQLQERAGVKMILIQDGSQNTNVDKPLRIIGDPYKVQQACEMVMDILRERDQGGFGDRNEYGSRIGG
Description: NMR.

The next data set concerns the target T7, KSRP KH4 (human, UniProt Q92945).
T7 sequence: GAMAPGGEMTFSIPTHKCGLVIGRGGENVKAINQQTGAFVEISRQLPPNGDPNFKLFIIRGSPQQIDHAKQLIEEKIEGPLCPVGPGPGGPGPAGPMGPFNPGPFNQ
Description: NMR.

The target in a further data set is T8, KSRP KH1 (human, UniProt Q92945).
T8 sequence: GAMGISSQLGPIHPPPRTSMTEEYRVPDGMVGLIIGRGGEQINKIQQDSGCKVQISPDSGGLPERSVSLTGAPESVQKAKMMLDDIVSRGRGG
Nature of the data set: NMR.

The next data set concerns the target T9, KSRP KH3 (human, UniProt Q92945).
T9 sequence: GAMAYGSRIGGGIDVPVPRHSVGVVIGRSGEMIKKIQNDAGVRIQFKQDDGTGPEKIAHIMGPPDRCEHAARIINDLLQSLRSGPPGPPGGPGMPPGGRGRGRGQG
Description: NMR.

As a reminder, the Kd is the equilibrium constant for the complex coming apart. Lower therefore signals a tighter complex.

B1: TNFalpha BLI ARE 42-mer (ssRNA)
RNA: GUGUGUUAUUAUUUAUUAUUUAUUUAUUAUUUAUUUAUUCAG
Consider B1, for which the Kd in the data set with KSRP KH1-4 WT was determined as 3.6 ± 1.4 nM; with KSRP KH1-4, KH2 mutant, 43 ± 14 nM; with KSRP KH1-4, KH1 mutant, 7.3 ± 1.7 nM; with KSRP KH1-4, KH3 mutant, 95 ± 19 nM; in the data set with KSRP KH1-4, KH4 mutant, 50 ± 16 nM.

B2: GCACACCC (ssRNA)
RNA: GCACACCC
Regarding B2, the binding result with ZBP1 KH34 (Y396F) is “binds”.

B3: UUUAG (ssRNA)
RNA: UUUAG
As for B3, in the data set with KSRP KH2, the binding result was “binds”.

B4: UAGGG (ssRNA)
RNA: UAGGG
For B4, the binding result in the data set with KSRP KH4 is “binds”.

B5: UUGGG (ssRNA)
RNA: UUGGG
As to B5, in the data set with KSRP KH1, the binding result is reported as “binds”.

B6: UGGGU (ssRNA)
RNA: UGGGU
On to B6, for which, in the data set with KSRP KH3, the binding result is “binds”.
